Patent publication US20240368233A1 (University of Washington, published 2024)
Where a chain is given by its changes, count along the chain named. In names and notes the source's numbering stands.

T1: LHD101 chainB
T1 construct: also called LHD101B
T1 chain: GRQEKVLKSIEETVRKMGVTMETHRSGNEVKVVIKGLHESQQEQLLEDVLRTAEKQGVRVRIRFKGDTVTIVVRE

T2: LHD101 chainA
T2 construct: also called LHD101A
T2 chain: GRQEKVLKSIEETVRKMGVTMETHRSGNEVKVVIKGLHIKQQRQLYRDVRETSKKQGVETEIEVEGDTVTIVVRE

T3: 101B62
T3 construct: also called LHD101B62
T3 chain: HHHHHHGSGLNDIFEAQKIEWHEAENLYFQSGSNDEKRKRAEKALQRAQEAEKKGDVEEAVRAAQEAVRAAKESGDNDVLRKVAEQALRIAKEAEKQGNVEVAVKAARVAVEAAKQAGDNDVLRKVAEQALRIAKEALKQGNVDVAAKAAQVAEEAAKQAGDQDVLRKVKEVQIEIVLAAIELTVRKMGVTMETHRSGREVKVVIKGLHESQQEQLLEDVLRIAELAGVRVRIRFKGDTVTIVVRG

T4: 274B53
T4 construct: also called LHD274B DHR53 stop
T4 chain: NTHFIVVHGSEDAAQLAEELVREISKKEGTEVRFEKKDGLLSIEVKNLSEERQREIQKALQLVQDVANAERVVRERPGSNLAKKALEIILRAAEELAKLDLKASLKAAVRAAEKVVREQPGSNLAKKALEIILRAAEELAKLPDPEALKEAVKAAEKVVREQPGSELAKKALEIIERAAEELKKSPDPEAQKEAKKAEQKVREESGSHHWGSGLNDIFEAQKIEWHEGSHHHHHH

T5: DF202
T5 construct: Bivalent connector
T5 chain: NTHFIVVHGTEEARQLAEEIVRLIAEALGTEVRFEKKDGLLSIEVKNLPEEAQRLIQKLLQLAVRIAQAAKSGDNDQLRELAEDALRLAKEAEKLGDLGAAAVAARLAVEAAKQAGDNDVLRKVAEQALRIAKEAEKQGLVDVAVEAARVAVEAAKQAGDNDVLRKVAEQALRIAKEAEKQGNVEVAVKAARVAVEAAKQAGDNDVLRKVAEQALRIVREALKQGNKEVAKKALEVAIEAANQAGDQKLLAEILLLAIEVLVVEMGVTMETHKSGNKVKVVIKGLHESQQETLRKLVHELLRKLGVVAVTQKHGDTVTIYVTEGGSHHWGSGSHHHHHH

B1: LHD101A V69Q (designed binder)
chain: T2 chain with V69Q
B2: LHD101A_Q42M (designed binder)
chain: T2 chain with Q42M
B3: LHD101A_T70W (designed binder)
chain: T2 chain with T70W
B4: LHD101A_R43V (designed binder)
chain: T2 chain with R43V
B5: 278B (designed binder)
chain: GGSTVTFDITNIDWKSAELIMLAVYDIAQQEGTDVTFSFKEGELQITVKNLHEKWKRLIEMLIEACRRAQDPDPESLKEAVRIAEELVRLHPGNPLARAALKVILTAAEELAKLPDPEALKEAVKAAEKVVREQPGSNLAKKALEIILRAAEELAKLPDPEALKEAVKAAEKVVREQPGSELAKKALEIIERAAEELKKSPDPEAQKEAKKAEQKVREERPGSGGSGSHHWGSGSHHHHHH
notes: also called LHD278 B; LHD278 chainB
B6: 101B4 (designed binder)
chain: HHHHHHGSGLNDIFEAQKIEWHEAENLYFQSGSYEDECEEKARRVAEKVERLKRSGTSEDEIAEEVAREISEVIRTLKESGSSYEVICECVARIVAEIVEALKRSGTSEDEIAEIVARVISEVIRTLKESGSSYEVICECVARIVAEIVEALKRSGTSEEEIAEIVARVIQEVIRTLKESGSSYEVIRECLRRILEEVIEALKRSGVDSSEIVLIIIKIAVAVMGVTMEEHRSGNEVKVVIKGLHESQQEELLELVLRAAELAGVRVRIRFKGDTVTIVVRG
notes: also called LHD101B4
B7: LHD101 A10 (designed binder)
single chain, LHD101 chain A fused to DHR10: HHHHHHGSGLNDIFEAQKIEWHEAENLYFQSGSSSEKEELRERLVKIVVENAKRKGDDTEEAREAAREAFELVREAAERAGIDSSEVLELAIRLIKEVVENAQREGYDISEAARAAAEAFKRVAEAAKRAGITSSEVLELAIILIKLVVELAQRKGYDISEAARAAAELFKRLAEALKRAGKTSERALALLILLLAIEILVRDMGVTMETHPSGNEVKVVIKGLHIKQQRQLYRLVREAAKLLGVEVEIEVEGDTVTIVVRGGS
B8: 202B64 (designed binder)
single chain, LHD202 chain B fused to DHR64: GSSVEFHIVNIDEDVAQLIELAVKLISKEEGTEVRFEKRDGELTIEVKNLHEKDLQLILELIEALLLIARAIELLRQAKEKGSEEDLEKALRTAEESARRLKKVLEKAEKLGNLGVALAAVAGVVLVAELLLRIAKESGSEEALERALRVAEEAARLAKRVLELAEKLGDAEAALLAVELVVRVAELLLRIAKESGSEEALERALRVAEEAARLAKRVLELAEKQGDAEVARRAVELVKRVAELLERIARESGSEEAKERAERVREEARELQERVKELREREGDGSHHWGSGLNDIFEAQKIEWHEGSHHHHHH
notes: also called LHD202 B64
B9: 101B14 (designed binder)
single chain, LHD101 chain B fused to DHR14: HHHHHHGSGLNDIFEAQKIEWHEAENLYFQSGSSEEVNERVKQLAEKAKEATDKEEVIEIVKELAELAKQSTDSELVNEIVKQLAEVAKEATDKELVIYIVKILAELAKQSTDSELVNEIVKQLAEVAKEATDKELVIYIVDILLKLAEQADDDELVEEIRKQLEEVAKEATDKELVEIIKAVIVLLVIISVVARMGVTMEIHKSGREVKVVIKGLHESQQEQLLEAVLRAAEEAGVRVRIRFKGDTVTIVVRG
notes: also called LHD101 B14
B10: LHD274 A76 (designed binder)
single chain, LHD274 chain A fused to DHR76: GSTTNFHLINGSEEARQVIEEIVEIIARLAGTEVHFEKSDGTLEIRVKNLHEELERLIKELIELALLLQLAKKEAIEEAKKQGNPELVEWVARAAEVVKEVLRVAAEAAGAGNPDLAKAAAELARAVIEAIEEAVKQGNAELVEWVARAAKVAAEVIKVAIQAEKEGNRDLFRAALELVRAVIEAIEEAVKQGNAELVERVARLAKKAAELIKRAIRAEKEGNRDERREALERVREVIERIEELVRQGNGSHHWGSGLNDIFEAQKIEWHEGSHHHHHH
B11: 202B57 (designed binder)
chain: GSSVEFHIVNISEKAAQIIERAVRAISKELGTEVRFEKRDGELTIEVKNLHERRLQEILLLIEAVKLLLLALKAVKEDPSTDALRAVLEAVRFASEVAKRVENPEAVAVLAELVIELALEAVKEDPSTDALRAVLEAVRLASEVAKRVTDADKALKIAKLVIELALEAVKEDPSEEAKRAVEEAKRLAEEVSKRVTDPELSEKIRQLVKELEEEAQKEDPSGSHHWGSGLNDIFEAQKIEWHEGSHHHHHH
B12: 29B53 (designed binder)
chain: SSIFLLSNVDESARQLAEELVREISKKEGTEVRFEKDDGFLTIEVKNLSEERLREIARALQLIVDVANAERVVRERPGSNLAKKALEIILRAAEELAKLPLKASLKAAVIAAELVVREQPGSNLAKKALEIILRAAEELAKLPDPEALKEAVKAAEKVVREQPGSELAKKALEIIERAAEELKKSPDPEAQKEAKKAEQKVREERPGSSGSHHHHHH
notes: also called LHD29B53

Tests used:
LHD101 chainB = molecular target: T1, LHD101 chainB; test: BLI, dissociation rate constant (kdis)
Procedure: Biolayer interferometry experiments were performed on an OctetRED96 BLI system (ForteBio, Menlo Park, CA). Streptavidin coated biosensors were first equilibrated for at least 10 minutes in Octet buffer (10 mM HEPES pH 7.4, 150 mM NaCl, 3 mM EDTA, 0.05% Surfactant P20) supplemented with 1 mg/ml Bovine Serum Albumin (SigmaAldrich). Enzymatically biotinylated designs were immobilized onto the biosensors by dipping the biosensors into a solution with 10-50 nM protein for 30-120 s. This was followed by dipping in fresh octet buffer to establish a baseline for 120 s. Titration experiments were performed at 25° C. while rotating at 1,000 r.p.m. Association of designs was allowed by dipping biosensors in solutions containing designed protein diluted in octet buffer until equilibrium was approached followed by dissociation by dipping the biosensors into fresh buffer solution in order to monitor the dissociation kinetics. Steady-state and global kinetic fits were performed using the manufacturer's software (Data Analysis 9.1) assuming a 1:1 binding model.

[1] = molecular target: the molecule itself; test: SEC titration of the protomer alone at several injection concentrations (Superdex 200, normalised A230); self-association
LHD101 chainA = molecular target: T2, LHD101 chainA; test: BLI steady-state titration, biotinylated unfused LHD101A on a streptavidin sensor
Excerpt: FIG. 8A-E. Characterization LHD binding in vitro. A: Designed models heterodimers (top row). Middle row, SEC binding experiments performed on a Superdex™ 75 column. Bottom row, biolayer interferometry kinetic binding traces. […] C: Kinetic binding traces from BLI. Equilibrium responses were used to fit equilibrium binding curves D: Equilibrium binding curves of LHDs from biolayer interferometry binding assays with data from C. […] Biotinylated unfused protomers were immobilized on streptavidin coated biosensors.
Biolayer interferometry experiments were performed on an OctetRED96 BLI system (ForteBio, Menlo Park, CA). Streptavidin coated biosensors were first equilibrated for at least 10 minutes in Octet buffer (10 mM HEPES pH 7.4, 150 mM NaCl, 3 mM EDTA, 0.05% Surfactant P20) supplemented with 1 mg/ml Bovine Serum Albumin (SigmaAldrich). Enzymatically biotinylated designs were immobilized onto the biosensors by dipping the biosensors into a solution with 10-50 nM protein for 30-120 s. This was followed by dipping in fresh octet buffer to establish a baseline for 120 s. Titration experiments were performed at 25° C. while rotating at 1,000 r.p.m. […]

101B62 = molecular target: T3, 101B62; test: SEC binding assay (Superdex 200, normalised A230) of A, B and the mixture AB
Procedure: (§1) Complexes and individual components were diluted in 20 mM Tris pH 8.0, 100 mM NaCl. After o/n equilibration of the mixtures at room temperature or 4 degrees C., 500 ul of sample was injected onto a Superdex™ 200 10/300 increase GL (dimers, linear assemblies) or Superose™ 6 increase 10/300 GL (symmetric assemblies) (all columns from GE healthcare) using the absorbance at 230 nm or 473 nm (for GFP tagged components) as read-out. Dimers were mixed at monomer concentrations of 5 μM or higher. Trimer and ABCD tetramer mixtures contained 5 μM of the bivalent connector, and 7.5 μM of each terminal cap (lower absolute concentrations with the same ratios were used for some trimers). ABCA tetramer mixtures contained 5 μM per bivalent connector and 15 μM terminal cap. The hexamer mixture contained 3 μM of components C and D, 3.6 μM of B and E, and 4.4 μM of A and F. The branched assembly shown in FIG. 4A contained 2.8 μM of the trivalent connector and 4 μM of each cap. For the exchange experiment shown in FIG. 5A, the ABC trimer was preincubated at concentrations of 6 μM B and 9 μM each of A and C. C′ was then added to reach a final concentration of 2 μM B, 3 μM each of A and C, and 6 μM C′.

101B14 = molecular target: B9; test: as above
Procedure: as §1

274B53 = molecular target: T4, 274B53; test: as above
Procedure: as §1

DF202 = molecular target: T5, DF202; test: SEC of mixed components; trimer listed in Table 6
Procedure: as §1

## B1
LHD101 chainB
  koff: 0.00653 s⁻¹

## B2
LHD101 chainB
  koff: 0.00941 s⁻¹

## B3
LHD101 chainB
  koff: 0.0102 s⁻¹

## B4
LHD101 chainB
  koff: 0.0113 s⁻¹

## B5
[1]
  binding result: binds

## B6
LHD101 chainA
  binding result: binds

## B7
101B62
  binding result: binds
101B14
  binding result: binds

## B8
[1]
  binding result: binds

## B9
[1]
  binding result: no binding (tested: 114.0 uM)

## B10
274B53
  binding result: binds

## B11
DF202
  binding result: binds

## B12
[1]
  binding result: binds
